Source: patent US20160272721A1 (NEOMICS, published 2016)

B2: H5 Fab (Fab, V domains shown)
VH: QEQLVESGGGLVTPGGTLTLTCTASGFTISSYHMTWVRQAPGKGLEWIGVISNSGGTSYANWAKGRFTISKTSTTVDLKITSPTTEDTATYFCVRGVPGINSNLWGQGTLVTISS
VL: AQVLTQTPSSVSAAVGGTVTINCQSSQSVYSGNWLAWYQQKPGQPPKLLIYSTSTLASGVPSRFKGSGSGTQFTLTVSDLECDDAATYYCAGDYDGYKNAFGGGTKVVVKR
notes: Detected with anti-HA tag or anti-human Fab antibody, so vector tags may be present; they are not described; also called antibody fragment H5 Fab; antibody (Fab) of colon H5
B4: AIMP2-DX2 epitope peptide (amino acid residues 42 to 52, GHVQDYGALKD, of the AIMP2-DX2 protein) (peptide)
peptide: GHVQDYGALKD

Tests used:
[1] = biological target: T1, Smad2 (human) (human, UniProt Q15796 1-467, limits assumed); experiment: yeast two hybrid (FIG. 4e)
T1 construct: LexA fusion (pEG202) in yeast two hybrid; also called R-Smad2; Lex-Smad2

[2] = biological target: T2, FUSE-binding protein (UniProt Q96AE4 1-644, limits assumed); experiment: yeast two hybrid (FIG. 4e)
T2 construct: Yeast two hybrid fusion; construct not described; also called FBP
T2 sequence (looked up): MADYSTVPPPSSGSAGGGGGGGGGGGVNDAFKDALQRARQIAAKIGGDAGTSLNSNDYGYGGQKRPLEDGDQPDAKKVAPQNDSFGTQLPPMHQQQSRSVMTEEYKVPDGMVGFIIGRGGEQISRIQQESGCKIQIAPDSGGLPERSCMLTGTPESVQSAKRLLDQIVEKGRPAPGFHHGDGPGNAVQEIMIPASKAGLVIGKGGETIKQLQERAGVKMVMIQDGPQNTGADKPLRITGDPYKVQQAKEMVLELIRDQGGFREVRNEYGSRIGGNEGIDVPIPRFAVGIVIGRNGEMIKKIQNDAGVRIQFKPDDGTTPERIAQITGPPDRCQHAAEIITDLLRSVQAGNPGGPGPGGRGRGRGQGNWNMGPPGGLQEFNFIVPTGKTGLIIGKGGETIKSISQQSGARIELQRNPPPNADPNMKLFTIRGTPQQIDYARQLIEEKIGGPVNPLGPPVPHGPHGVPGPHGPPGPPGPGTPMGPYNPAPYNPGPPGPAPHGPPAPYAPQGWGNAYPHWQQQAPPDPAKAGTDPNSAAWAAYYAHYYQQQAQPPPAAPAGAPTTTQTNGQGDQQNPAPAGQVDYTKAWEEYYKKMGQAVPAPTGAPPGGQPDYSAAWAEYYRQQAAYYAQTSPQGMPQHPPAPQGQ

[3] = biological target: T3, AIMP2-DX2 with thirty three (33) N-terminal amino acids deleted, fused with strep tag (human, UniProt Q13155 34-320); experiment: Western blot of HEK293T lysates (FIG. 20a)
T3 construct: Expressed in HEK293T cells, tested in cell lysate; also called Δ33-DX2; Δ33; not shown: strep tag of thirty amino acids including a linker peptide
T3 sequence: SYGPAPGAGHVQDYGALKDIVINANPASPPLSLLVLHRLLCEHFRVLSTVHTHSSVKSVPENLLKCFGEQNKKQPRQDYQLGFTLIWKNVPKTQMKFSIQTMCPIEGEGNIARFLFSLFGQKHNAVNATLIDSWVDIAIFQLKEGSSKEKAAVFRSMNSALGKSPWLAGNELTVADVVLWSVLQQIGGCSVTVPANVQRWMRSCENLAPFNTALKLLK
From the text: (§1) FIG. 20a and FIG. 20b show a test result of determining the effect of N-terminal amino acid deletion of the AIMP2-DX2 protein on the binding between the H5 Fab and the AIMP2-DX2 protein. […] Being fused with strep tag, the AIMP2-DX2 proteins expressed in HEK293T cells were the full-length AIMP2-DX2 protein (“F-DX2” or “F”) and its N-terminal deleted isotypes (“42-DX2” or “42” for two (2) amino acid deletion; “423-DX2” or “423” for twenty three (23) amino acid deletion; “433-DX2” or “433” for thirty three (33) amino acid deletion), respectively. […] “EV” means an empty vector.
(§2) Further, the effect of N-terminal amino acid deletion of the AIMP2-DX2 protein on the binding between H5 Fab and AIMP2-DX2 protein was analyzed (See FIG. 20). It was reported that N-terminal amino acid residues of the AIMP2-DX2 exert a significant effect on the solubility of the AIMP2-DX2. AIMP2-DX2 derivatives in which the N-terminal two (2), twenty three (23) or thirty three (33) amino acid residues were deleted, respectively, were prepared (See FIG. 20b). The full-length AIMP2-DX2 and its isotypes were fused with strep tag and then expressed in the HEK293T cells, followed by Western blot analysis using H5 Fab.

[4] = biological target: T4, AIMP2-DX2 with two (2) N-terminal amino acids deleted, fused with strep tag (human, UniProt Q13155 3-320); experiment: Western blot of HEK293T lysates (FIG. 20a)
T4 construct: Expressed in HEK293T cells, tested in cell lysate; also called Δ2-DX2; Δ2; not shown: strep tag of thirty amino acids including a linker peptide
T4 sequence: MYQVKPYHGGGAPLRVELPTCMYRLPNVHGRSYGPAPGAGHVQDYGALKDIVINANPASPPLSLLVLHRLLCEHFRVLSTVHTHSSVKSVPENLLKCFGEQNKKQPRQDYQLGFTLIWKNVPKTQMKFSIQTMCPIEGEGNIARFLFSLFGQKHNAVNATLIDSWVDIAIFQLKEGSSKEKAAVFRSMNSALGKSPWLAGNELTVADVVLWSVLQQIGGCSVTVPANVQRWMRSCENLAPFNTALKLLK
From the text: as §1, §2

[5] = biological target: T5, AIMP2-DX2 with twenty three (23) N-terminal amino acids deleted, fused with strep tag (human, UniProt Q13155 24-320); experiment: Western blot of HEK293T lysates (FIG. 20a)
T5 construct: Expressed in HEK293T cells, tested in cell lysate; also called Δ23-DX2; Δ23; not shown: strep tag of thirty amino acids including a linker peptide
T5 sequence: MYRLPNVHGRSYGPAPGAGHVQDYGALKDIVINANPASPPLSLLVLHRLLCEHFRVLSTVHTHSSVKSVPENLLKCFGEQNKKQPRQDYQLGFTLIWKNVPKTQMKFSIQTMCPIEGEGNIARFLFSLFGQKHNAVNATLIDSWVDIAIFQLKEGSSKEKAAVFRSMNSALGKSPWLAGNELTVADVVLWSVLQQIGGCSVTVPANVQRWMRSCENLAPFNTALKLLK
From the text: as §1, §2

[6] = biological target: T6, AIMP2 protein (wild type, full-length) (human, UniProt Q13155 1-312, limits assumed); experiment: Western blot of H460 cell lysates (FIG. 22)
T6 construct: 217 is written here; B42 fusion (pJG4-5) in yeast two hybrid; 35S-labelled in vitro translation product in the pull-down; endogenous in A549, DU145 and H460 cells; also called AIMP2-F; p38
T6 sequence: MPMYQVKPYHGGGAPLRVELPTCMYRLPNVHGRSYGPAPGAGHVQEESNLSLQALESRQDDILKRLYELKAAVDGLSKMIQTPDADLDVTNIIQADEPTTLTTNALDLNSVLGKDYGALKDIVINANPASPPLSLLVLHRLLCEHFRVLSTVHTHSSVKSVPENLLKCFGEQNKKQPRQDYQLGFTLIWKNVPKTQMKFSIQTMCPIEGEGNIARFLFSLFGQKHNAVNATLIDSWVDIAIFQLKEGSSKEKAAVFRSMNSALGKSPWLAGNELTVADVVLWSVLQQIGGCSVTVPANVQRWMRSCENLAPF
Experimental: Lastly, it was tested whether H5 antibody is capable of differentiating AIMP2-DX2 from wild type AIMP2 protein (See FIG. 22). Western blot analysis was performed on H460 cell lysates using the H5 antibody.

[7] = biological target: B4; experiment: surface plasmon resonance, H5 IgG on CM5 chip, peptide in flow (FIG. 21a)
From the text: H5 antibody and IgG proteins were coated on the CM5 chips, while the exemplary AIMP2-DX2 epitope peptide (i.e. amino acid residues 42 to 52 ([…]) as shown in SEQ ID NO: 2 or SEQ ID NO: 17) at various concentrations was flowed over the chip. As shown in FIG. 21a and FIG. 21b, the binding affinity between H5 IgG antibody and the AIMP2-DX2 epitope peptide was indicated in sensorgram. X axis of sensorgram indicates time (second, s), while y axis means response (response unit, RU). The description in a box indicates a concentration of the AIMP2-DX2 epitope peptide in nM.
Still further, the binding affinity between H5 IgG antibody and the exemplary AIMP2-DX2 epitope peptide was determined by using surface plasmon resonance analysis (See FIG. 21). The H5 antibody (IgG) and IgG proteins were coated on the CM5 chips, while the exemplary AIMP2-DX2 epitope peptide at various concentrations was flowed over the chip to monitor the real time association and dissociation between H5 antibody and the exemplary AIMP2-DX2 epitope peptide. Analysis reagents and buffer were injected at the flow velocity of 15 μl/min. for 6 min, followed by washing for 20 min. Analysis was performed in sensorgram in which a response result of a blank without protein coating is subtracted from a response results between H5 antibody or IgG and the AIMP2-DX2 epitope peptides.

[8] = biological target: B2; experiment: antigen pre-adsorption, 100 µg/ml peptide with H5 Fab, Western blot of H460 lysate (FIG. 18)
Experimental: Firstly, antigen pre-adsorption analysis was conducted in order to confirm whether the prepared H5 Fab specifically binds to the AIMP2-DX2. After electrophoresis of cell lysates of H460 lung cancer cells which expressed the AIMP2-DX2, Western blot analysis was performed using a H5 Fab in the presence of 100 μg/ml of the AIMP2-DX2 epitope polypeptide ([…]) (indicated as “+” in FIG. 18) and a H5 Fab without the addition of the AIMP2-DX2 epitope peptide (indicated as “−” in FIG. 18), respectively.

T1 sequence (Q15796 whole entry, the tested form may be a part): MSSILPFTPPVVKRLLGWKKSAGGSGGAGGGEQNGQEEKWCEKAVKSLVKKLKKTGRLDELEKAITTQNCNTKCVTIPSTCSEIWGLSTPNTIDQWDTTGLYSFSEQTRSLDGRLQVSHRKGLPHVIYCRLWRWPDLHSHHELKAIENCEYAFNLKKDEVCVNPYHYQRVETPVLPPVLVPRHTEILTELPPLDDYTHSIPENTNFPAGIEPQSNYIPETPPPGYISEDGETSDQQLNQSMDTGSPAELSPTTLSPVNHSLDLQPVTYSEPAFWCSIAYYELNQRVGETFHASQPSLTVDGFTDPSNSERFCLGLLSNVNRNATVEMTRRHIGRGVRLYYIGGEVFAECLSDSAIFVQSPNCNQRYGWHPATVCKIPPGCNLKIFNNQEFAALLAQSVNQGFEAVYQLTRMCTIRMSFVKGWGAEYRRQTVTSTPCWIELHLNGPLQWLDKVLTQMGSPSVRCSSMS

B1: AIMP2-DX2 protein (other)
chain: MPMYQVKPYHGGGAPLRVELPTCMYRLPNVHGRSYGPAPGAGHVQDYGALKDIVINANPASPPLSLLVLHRLLCEHFRVLSTVHTHSSVKSVPENLLKCFGEQNKKQPRQDYQLGFTLIWKNVPKTQMKFSIQTMCPIEGEGNIARFLFSLFGQKHNAVNATLIDSWVDIAIFQLKEGSSKEKAAVFRSMNSALGKSPWLAGNELTVADVVLWSVLQQIGGCSVTVPANVQRWMRSCENLAPFNTALKLLK
notes: Endogenous protein in H460 or SW460 cell lysates in the Western blots; LexA/B42 fusion in yeast two hybrid; 35S-labelled in vitro translation product (pET-28a) in the pull-down; also called p38DX2; AIMP2 lacking exon 2
binding result [1]: no binding | binding result [2]: no binding

B2
binding result [3]: binds | binding result [4]: binds | binding result [5]: binds | binding result [6]: no binding

B3: H5 IgG antibody (antibody, V domains shown)
VH: QEQLVESGGGLVTPGGTLTLTCTASGFTISSYHMTWVRQAPGKGLEWIGVISNSGGTSYANWAKGRFTISKTSTTVDLKITSPTTEDTATYFCVRGVPGINSNLWGQGTLVTISS
VL: AQVLTQTPSSVSAAVGGTVTINCQSSQSVYSGNWLAWYQQKPGQPPKLLIYSTSTLASGVPSRFKGSGSGTQFTLTVSDLECDDAATYYCAGDYDGYKNAFGGGTKVVVKR
notes: also called H5 antibody (IgG); H5 antibody
binding result [7]: binds

B4
binding result [8]: binds
